Experimental findings from patent US20240360204A1 (UNITED STATES GOVERNMENT AS REPRESENTED BY THE DEPARTMENT …, published 2024) are described below.

In experiment [1] the target is T1, Oxygen stable streptolysin O (SLOwt) from Streptococcus pyogenes, recombinant, N-terminal His-tag, BirA … (Streptococcus pyogenes, UniProt Q5XE40 32-571, limits assumed, mono-biotinylated at the BirA (AviTag) site where biotinylated SLOwt was used (ELISA; one lane of the Western blot)). In words: cell-based or functional assay.
Experiment [2] deals with T1, Oxygen stable streptolysin O (SLOwt) …. In words: ELISA.

B1: hu55G4λ (antibody, human IgG1, V domains shown)
VH: EVQLVQSGGGAVQPGRSLRLSCAVSGFTFSNFPMHWVRQAPGRGLEWVAVISHDETMIYYLDSVKGRFTISRDNSRNIVYLQMHSLRVEDTAVYYCARDTGVCSGGYCYTPRYFDQWGQGTLVTVSS
VL: QPVLTQPPSVSVAPGKTADITCGGDNIGRKHVHWYRQRPSQAPLLVIYDDSDRPSGIPERLSGINSGNTATLTISGVEVGDEADYYCQVWDNDAEQWVFGGGTKLTV
notes: also called 55G4 IgG antibody; 55LG4
Usually Kd stands for the equilibrium constant for the complex coming apart. With B1, in experiment [1], the “aCTX IC50 (M): anti-cytotoxicity on epithelial cells (A549)” value (shortened to “aCTX IC50 (M): anti-cytotoxicity”) amounted to 5.1e-09 M, the “aHU IC50 (M): neutralization of SLOwt-induced RBC hemolysis” value (“aHU IC50 (M): neutralization” below) was 6.3e-09 M, the “aMBEP IC50 (M): anti-membrane binding on epithelial cells” value was found to be 2e-09 M and the “aMBRBC IC50 (M): anti-membrane binding on RBCs” value turned out to be 7.9e-09 M. Moreover, in experiment [2], the Kd stood at 0.046 nM.

B2: hu55L17κ (antibody, human IgG1, V domains shown)
VH: QVQLVQSGAEVKKPGSSVKVSCRPPGGTLSNYAINWVRQAPGQGLEWMGGIVPMFSTTKYAQKFQGRLTLTADLSTITAHMELNRLTSEDTAVYYCARDLPAPYCSADLCYKVLDAFDVWGQGTLVTVSS
VL: EIVLTQSPSSLSASVGDRVTITCQASQDISNYLNWYQQKPGKAPKLLIYKASSLESGVPSRFSGSGSGTEFTLTITRLQPDDFATYYCQQYEEYLRYSFGQGTKLEIK
notes: also called 55L17 IgG antibody
In the case of B2, in experiment [1], the “aCTX IC50 (M): anti-cytotoxicity” value was 1.1e-09 M and the “aHU IC50 (M): neutralization” value stood at 2.7e-09 M. Also, the Kd in experiment [2] is 0.078 nM.

B3: hu55C11λ (antibody, human IgG1, V domains shown)
VH: QVQLVESGGGLVKPGGSLRLSCAASGFTFSSHSMNWVRQTPGKGLEWVSSINTISTFIYYADSVKGRFTVSRDNARNSLFLQMNTLTADDTGVYYCARERGNRFCDGDCYSGTTFDYWGPGTLVTVSS
VL: QPVLTQPPSVSVAPGRTSRITCEENNIGTKNVHWYQQKPGQAPLLVVHDDSDRPSGIPERFSGSNSGNTATLTISRVEAGDEADYYCQVWDSDNDRWLFGGGTRLTVLG
notes: also called 55c11 IgG antibody
B3: in experiment [1], the “aCTX IC50 (M): anti-cytotoxicity” value was determined as 2.6e-09 M, the “aHU IC50 (M): neutralization” value amounted to 4.4e-09 M, the “aMBEP IC50 (M): anti-membrane binding on epithelial cells” value amounted to 1.1e-09 M and the “aMBRBC IC50 (M): anti-membrane binding on RBCs” value stood at 1.3e-09 M. Moreover, in experiment [2], the Kd turned out to be 0.038 nM.
